Tests used:
[1] = target: B7-H3 on human cancer cells (human) (UniProt Q5ZPR3); test: cell-based or functional assay
[2] = target: T1, human 4Ig B7-H3 expressed on Raji cells (human) (UniProt Q5ZPR3); test: flow cytometry on Raji cells expressing 4Ig B7-H3; the vector control Raji cells show < 2%
T1 sequence: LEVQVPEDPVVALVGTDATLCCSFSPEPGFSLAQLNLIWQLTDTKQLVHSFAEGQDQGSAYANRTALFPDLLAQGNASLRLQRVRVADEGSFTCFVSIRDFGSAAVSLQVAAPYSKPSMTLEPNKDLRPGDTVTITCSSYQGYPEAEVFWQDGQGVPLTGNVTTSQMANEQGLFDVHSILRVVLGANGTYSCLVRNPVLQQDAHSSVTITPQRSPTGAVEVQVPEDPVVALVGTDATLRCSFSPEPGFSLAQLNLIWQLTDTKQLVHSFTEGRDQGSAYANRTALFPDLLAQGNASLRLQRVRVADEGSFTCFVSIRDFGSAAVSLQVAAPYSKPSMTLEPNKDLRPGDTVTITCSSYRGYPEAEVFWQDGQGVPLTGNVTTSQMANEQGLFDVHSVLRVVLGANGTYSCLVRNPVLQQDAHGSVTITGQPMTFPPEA

[3] = target: T2, recombinant human 2Ig B7-H3 (human, UniProt Q5ZPR3 29-466); test: indirect ELISA, antigen coated at 1 ug/mL, anti-human Fc-HRP, absorbance at 450 nm
T2 construct: Bought recombinant protein (R&D Systems); also called 2lg B7-H3
T2 sequence: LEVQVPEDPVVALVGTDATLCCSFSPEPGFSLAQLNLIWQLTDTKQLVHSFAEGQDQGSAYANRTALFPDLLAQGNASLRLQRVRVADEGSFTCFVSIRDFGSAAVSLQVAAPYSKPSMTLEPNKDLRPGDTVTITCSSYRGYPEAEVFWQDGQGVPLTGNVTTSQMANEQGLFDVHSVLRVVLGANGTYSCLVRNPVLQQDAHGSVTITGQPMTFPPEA
Method: (§1) The binding ability of 2D IgG prepared in Example 2 for recombinant B7-H3 protein was investigated by indirect ELISA. For indirect ELISA, recombinant human 4lg B7-H3, recombinant human 2lg B7-H3 and recombinant mouse B7-H3 were diluted respectively to 1 μg/mL in 50 μL of PBS and adsorbed overnight onto a 96-well immunoplate (Corning, USA) by storing at 4° C. After reaction with a buffer solution containing 3% bovine serum albumin at room temperature for 1 hour, followed by washing 3 times with a buffer solution containing 0.5% Tween 20, each well was treated with 50 μL of the antibodies diluted serially (0.0001, 0.0003, 0.001, 0.003, 0.01, 0.03, 0.1, 0.3, 1, 3 and 10 nM). For antigen-antibody binding, the mixture was reacted at room temperature for 2 hours, and then washed 3 times with a buffer solution containing 0.5% Tween 20. After treating each well with 50 μL of anti-human immunoglobulin Fc-HRP antibodies (Jackson Immunoresearch, USA) diluted to 1:3,000, reaction was conducted at room temperature for 1 hour. […] As a result of measuring absorbance at 450 nm using a spectrophotometer (Biotek, USA), it was confirmed that 2D IgG binds to B7-H3, and the binding ability was in the order of 4lg B7-H3, 2lg B7-H3 and mouse B7-H3 (FIG. 2a).

[4] = target: T3, recombinant human 4Ig B7-H3 (human, UniProt Q5ZPR3 29-461, limits assumed); test: as above
T3 construct: Bought recombinant protein (Sino Biological); also called 4lg B7-H3
T3 sequence: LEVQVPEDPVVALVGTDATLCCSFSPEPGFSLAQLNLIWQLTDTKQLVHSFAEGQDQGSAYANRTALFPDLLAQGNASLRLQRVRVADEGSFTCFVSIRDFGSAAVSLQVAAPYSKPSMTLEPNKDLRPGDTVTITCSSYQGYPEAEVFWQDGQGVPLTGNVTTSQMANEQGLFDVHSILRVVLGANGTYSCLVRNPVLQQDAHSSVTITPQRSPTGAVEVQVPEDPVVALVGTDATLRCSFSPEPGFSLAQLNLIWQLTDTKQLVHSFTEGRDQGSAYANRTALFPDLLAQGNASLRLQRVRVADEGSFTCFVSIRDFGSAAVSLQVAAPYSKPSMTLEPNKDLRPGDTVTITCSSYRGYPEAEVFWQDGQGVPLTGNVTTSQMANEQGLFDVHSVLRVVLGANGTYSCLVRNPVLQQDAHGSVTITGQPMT
Method: as §1

Work on “enoblituzumab with wild-type Fc (antibody)” yielded a T cell-mediated A549 cell-killing effect (GFP fluorescence of A549 cells after 48 h co-culture with activated PBMCs; negative control group = 100) [1] of 77.3.

B1: enoblituzumab (antibody, part only; not given: Constant regions, V domains shown, not shown: another chain or arm of the molecule)
VH: EVQLVESGGGLVQPGGSLRLSCAASGFTFSSFGMHWVRQAPGKGLEWVAYISSDSSAIYYADTVKGRFTISRDNAKNSLYLQMNSLRDEDTAVYYCGRGRENIYYGSRLDYWGQGTTVTVSS
VL: DIQLTQSPSFLSASVGDRVTITCKASQNVDTNVAWYQQKPGKAPKALIYSASYRYSGVPSRFSGSGSGTDFTLTISSLQPEDFATYYCQQYNNYPFTFGQGTKLEIK
B1 was tested, and the % of cells in the positive gate (P3) [2] was > 70%.

B2: 2D IgG (antibody, V domains shown)
VH: AVTLDESGGGLQTPGGGLSLVCKASGFDFSSYPMVWVRQAPGKGLEYVASINSGGSWTGYGAAVKGRATISRDNGQSTVRLQLNNLRAEDTATYYCARAYGAATIDAWGHGTEVIVSS
VL: ALTQPSSVSANLGGTVKITCSGGSIGYGWYQQKAPGSAPVTVIYYNDRRPSDIPSRFSGSKSGSANTLTITGVQADDEAIYYCGSADSSSTYTGIFGAGTTLTVL
notes: Chicken/human chimeric complete antibody (full-length IgG); also called 2D complete antibody; parent antibody (2D)
With B2 the “EC50 (read off the curve)” value [3] was ~0.2 nM and the “EC50 (read off the curve)” value [4] was ~0.006 nM.
